From the supplement of paper PMC12764529
± gives the half width of the 95% confidence interval.

What was measured:
[1] = folding stability dG unfold from trypsin proteolysis; higher = more stable
Outline: (§1)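 Designed mini-proteins (under 80 residues, no cysteine) in a PA-tagged cDNA display construct were digested with trypsin and chymotrypsin. Each protease was used at 11 concentrations (threefold dilutions) plus a no-protease condition, followed by sequencing. K50 was inferred by Bayesian fitting of sequencing counts, and unfolding free energy was derived against a sequence-predicted unfolded-state K50 and a shared folded-state K50, per protease or combined. Only designs with AlphaFold2 dimer inter-PAE above 15 were kept.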

[2] = folding stability dG unfold from chymotrypsin proteolysis; higher = more stable
Outline: as §1

[3] = folding stability dG unfold (combined trypsin and chymotrypsin); higher = more stable
Outline: as §1

Sequence | folding stability dG unfold [1] | folding stability dG unfold [2] | folding stability dG unfold [3]
SAGGSAGGSAAPVVREIEIDLPYPDGSPLTVEKVTEEPAPGTVHYEIKLPDGTVITRTVPTFSAGGSAGGSA [r18_370_JUSTAS] | -0.92 ± 0.3 kcal/mol | -1.03 ± 0.39 kcal/mol | -0.797 ± 0.24 kcal/mol
SAGGSAGGSAGAPTVKLTFTVTRTETKTETLPDGTTKTETKTETRTVTLTLAPGETITVTSAGGSAGGSAGG [r11_174_TrROS_Hall] | 3.39 ± 0.084 kcal/mol | 4.27 ± 0.077 kcal/mol | 3.98 ± 0.11 kcal/mol
SASLANGGLRVDVELEFDPETHEIRVKRLTLYRGDEPVATADATIAVPPAAPPPPPVVVLDPDVPFDNESAG [r14_571_TrMRF] | 0.687 ± 0.075 kcal/mol | 1.71 ± 0.084 kcal/mol | 1.28 ± 0.12 kcal/mol
SAGGMTLEITFPPNVKKVRVEFDEETNEVKVEVEEVDGELVIRVEVPPGQELSEEELERLKKLLEELSAGGS [r16_359_TrROS_Hall] | 1.34 ± 0.037 kcal/mol | 1.79 ± 0.072 kcal/mol | 1.65 ± 0.083 kcal/mol
SAKVYRTKDGKEVKVEKKKVKVKTIEIEIEIEMPKELEEKVKKLAEELAKKLAEELNLPPGAKIKITVRSAG [r14_453_TrROS_Hall] | 2.54 ± 0.06 kcal/mol | 2.04 ± 0.051 kcal/mol | 2.34 ± 0.17 kcal/mol
DTVTIVVEGMSEEEVLEKARAAAEELAKEGKTVEIVVKLSPEALKKAGVEKVEEVEDEETGLLVIKVEVKPS [r1_467_TrROS_Hall] | 1.04 ± 0.13 kcal/mol | 0.599 ± 0.07 kcal/mol | 0.684 ± 0.28 kcal/mol
SAGGSAGGSAGEPKLILVEVEGYPDPESNLVYVEFPNGDIATFAVDSAAPDQPVLVLVNPSAGGSAGGSAGG [r11_621_TrMRF] | 0.378 ± 0.044 kcal/mol | -0.0185 ± 0.065 kcal/mol | 0.28 ± 0.045 kcal/mol
SAGGSAGGSAGGNVRNLDISLDPEEGTIKIKATLPENGQTWEITIPVQIPLPPPPPGDNSAGGSAGGSAGGS [r10_331_TrROS] | 0.49 ± 0.1 kcal/mol | 0.502 ± 0.12 kcal/mol | 0.424 ± 0.29 kcal/mol
SFNISVSVEPDDDKYKVTIWIQVDPEEFPGQPPTPSVIEEIARELARDWGIKEVEIEPPPNGYYRHTFPLSA [r9_883_TrROS] | 1.33 ± 0.032 kcal/mol | 2.25 ± 0.057 kcal/mol | 1.88 ± 0.1 kcal/mol
SAGGSAGGSAGGPKVEIVEVTVEGDKVTIRVKNEETGEWVTLEVTLKDLPKVTFVLKPKSAGGSAGGSAGGS [r10_655_TrROS_Hall] | 1.17 ± 0.032 kcal/mol | 1.16 ± 0.19 kcal/mol | 1.19 ± 0.11 kcal/mol
SAGGSAGGSAKWIYIMLPFPEGQKVEIEYPNGRKHSYEQTPDGMLMIRVRRPNAPIKIKIKSAGGSAGGSAG [r3_334_TrROS] | 1.9 ± 0.13 kcal/mol | 2.72 ± 0.23 kcal/mol | 2.4 ± 0.25 kcal/mol
SAGGYIPASARIEVLEVFEDGTVRVRVTYPDGSEAEVVARLVRTADGRVYLEIFDPRTGRLLATLELTSAGG [r13_527_TrMRF] | 4.09 ± 0.09 kcal/mol | 3.81 ± 0.054 kcal/mol | 3.88 ± 0.092 kcal/mol
SAGGSAGGSAPELVKKIAEELPVPVKVEPFGNVLLVELELPNEDGEPVKLRLAIPIPPELLGSAGGSAGGSA [r18_27_TrMRF] | -0.195 ± 0.11 kcal/mol | 0.909 ± 0.12 kcal/mol | 0.463 ± 0.19 kcal/mol
SAGGSAGGSAGKQPIEMWFMFPNGVAIVLRIKVDPPSPKAKIDAIEVVPVRDPDNGKWRFSAGGSAGGSAGG [r11_919_TrROS] | 0.566 ± 0.11 kcal/mol | 1.85 ± 0.1 kcal/mol | 1.38 ± 0.14 kcal/mol
SAGGSAGGSAGMKVVVTLPDRTVTIPVNGTLDEAKEAVIKRAEELFGKPIPIEEITMSGESAGGSAGGSAGG [r11_1028_JUSTAS] | 0.677 ± 0.03 kcal/mol | -0.0243 ± 0.083 kcal/mol | 0.408 ± 0.11 kcal/mol
SAGGSPDEAVPLPVPAKITLPGGAEFTVEEAVVLPNGEVLVKATLISPYPDPREAPFVVPLELLDISSAGGS [r16_498_TrMRF] | -0.338 ± 0.054 kcal/mol | 0.395 ± 0.03 kcal/mol | 0.235 ± 0.066 kcal/mol
SAGGSAKKKKVTITIEVVKNKETGEYLVRIKIKVDGKEYEIVMSEDELKALIDAGVKIEKIEVYPRSAGGSA [r15_783_TrROS_Hall] | 1.6 ± 0.017 kcal/mol | 2.99 ± 0.082 kcal/mol | 2.59 ± 0.1 kcal/mol
SAGGSANGYFILIKIEEIKLTKMRRDPDGKQWQWNFSVKIKIEVVKVFRIKPDPNGNWKIEPGDPISAGGSA [r15_162_TrROS] | 3.01 ± 0.11 kcal/mol | 3.33 ± 0.053 kcal/mol | 3.25 ± 0.12 kcal/mol
SAGGSAGGSKKPPIYKIEIEIDGKKLTIEAKSKEEALKALKEELKKKYPNLKITKIKIEKVKPSAGGSAGGS [r12_429_TrROS_Hall] | 1.52 ± 0.088 kcal/mol | 2.4 ± 0.14 kcal/mol | 2.14 ± 0.15 kcal/mol
SAGGSSPLLLTSSPTPLTLPDGGTVTLTTTRVPGDNADVVTITTTPPGTGTTTVTTLPASTAAATLSAGGSA [r2_366_JUSTAS] | 1.47 ± 0.034 kcal/mol | 0.603 ± 0.12 kcal/mol | 1.15 ± 0.068 kcal/mol
SAGGMKKYKVTVTIELTPPDGTTTTVTVTIDVDGDEKKALEEAEKVAEELKAAGYPVTIKEIKIYEESAGGS [r16_525_JUSTAS] | 3.8 ± 0.37 kcal/mol | 4.51 ± 0.3 kcal/mol | 4.69 ± 0.78 kcal/mol
